Holding throughout (assay): LC/MS glucosylation assay, Lineweaver-Burk
Holding throughout (format): biochemical, Isatis tinctoria
Common to all, as to details: 2 mM UDP-glucose, 20–200 μM acceptor, 100 mM phosphate pH 8.0, 30°C

Substrate in data set [1]: [H][C@@]1(Oc2ccc([C@H]3OC[C@]4([H])[C@@H](c5ccc(O)c(OC)c5)OC[C@]34[H])cc2OC)O[C@H](CO)[C@@H](O)[C@H](O)[C@H]1O
The text has this: (§1) LC/MS glucosylation assay, Lineweaver-Burk on IiUGT71B5a

Substrate in data set [2]: COc1cc(C[C@H]2CO[C@H](c3ccc(O)c(OC)c3)[C@H]2CO)ccc1O
Excerpt: as §1

Substrate in data set [3]: Oc1cc2c(cc1[C@H]1OC[C@H]3[C@@H]1CO[C@@H]3c1ccc3c(c1)OCO3)OCO2
Excerpt: as §1

Substrate in data set [4]: COc1cc([C@@H]2OC[C@@H]3[C@H]2CO[C@H]3c2ccc(O)c(OC)c2)ccc1O
Excerpt: as §1

Substrate in data set [5]: COc1cc(C[C@H]2COC(=O)[C@@H]2Cc2ccc(O)c(OC)c2)ccc1O
Excerpt: as §1

Substrate in data set [6]: COc1cc(C[C@@H](CO)[C@H](CO)Cc2ccc(O)c(OC)c2)ccc1O
Excerpt: as §1

Substrate in data set [7]: Oc1cc2c(cc1[C@H]1OC[C@H]3[C@@H]1CO[C@@H]3c1ccc3c(c1)OCO3)OCO2
The text has this: (§2) LC/MS glucosylation assay, Lineweaver-Burk on IiUGT71B5b
This is another data set of the same source.

Substrate in data set [8]: COc1cc(C[C@H]2COC(=O)[C@@H]2Cc2ccc(O)c(OC)c2)ccc1O
Excerpt: as §2
This is another data set of the same source.

This note sets out measurements from publication PMC8044456, “Tandem UGT71B5s Catalyze Lignan Glycosylation in Isatis indigotica With Substrates Promiscuity” (Frontiers in Plant Science, 2021).

Broadly, the Km is the concentration of substrate that gives half-maximal velocity. For orientation: Vmax means the rate approached at saturating substrate. As usually defined, the kcat is the number of substrate molecules converted per active site and unit of time at saturation. For orientation: kcat/Km means the second-order rate constant that governs catalysis at low substrate concentration.

B1: IiUGT71B5a (Isatis tinctoria) (protein)
chain: MKIELVFIPSPGIGHLRSTVELAKQLVNGDDRLSITVIIIPRSSGGDATDSAQISSLFAASQDRLRYETISVADEPTADRLPTQLYIKNQKPQVRDAVAKILDPARVDSPPRLAGFVVDMFCTSMIDLADEFGVPTYMVYTSNATFLGITLHLQLMLDEKKYDTSELDESVNELEFPCLTRPYPVECLPYLFISKEWLPFFMDQARSFRKMKGILVNTVAELEPHALELFSGDDDLPRAYPVGPVLHLESGSDNSNDDGKQSEILRWLDDQPAKSVVFLCFGSMGGFNEEQTREIAVALDRSGHRFLWSLRRASPDILKQGPGDYTDLDEVLPEGFLDRTLERGKIIGWAPQAAVLAKPAIGGFVTHCGWNSMLESLWFGVPMVTWPLYAEQKVNAFVMVEELGLAVEIRRSLKGDLMAGGMETVAAEDIERAIRRVMEQDSDVRNRVKEMAEKCHVALTDGGSSQVALRKFIQDVIENVVV
notes: full-length ORF 1,449 bp, 482 aa; pET-32a+ tagged recombinant, E. coli BL21(DE3), Ni-NTA; tag removal not mentioned; gene in tandem cluster Ii4G26670/Ii4G26680/Ii4G26690 (Ii4G26690 = IiUGT71B5c); genome VHIU00000000
For B1, the Km came to 136.06 ± 6.56 µM in data set [1]; 568.29 ± 16.08 µM in data set [2]; 48.00 ± 0.79 µM in data set [3]; 67.16 ± 2.00 µM in data set [4]; 62.35 ± 1.53 µM in data set [5]; 168.48 ± 9.18 µM in data set [6]. The Vmax turned out to be 0.000111 µmol/min in data set [1]; 0.000141 µmol/min in data set [2]; 0.00049 µmol/min in data set [3]; 6.12e-05 µmol/min in data set [4]; 3.5e-05 µmol/min in data set [5]; 8.34e-05 µmol/min in data set [6]. For the same protein, the kcat is 0.128 s⁻¹ in data set [1]; 0.162 s⁻¹ in data set [2]; 0.563 s⁻¹ in data set [3]; 0.07 s⁻¹ in data set [4]; 0.0403 s⁻¹ in data set [5]; 0.0961 s⁻¹ in data set [6]. Further, the kcat/Km came to 939 M⁻¹ s⁻¹ in data set [1]; 285 M⁻¹ s⁻¹ in data set [2]; 11700 M⁻¹ s⁻¹ in data set [3]; 1040 M⁻¹ s⁻¹ in data set [4]; 646 M⁻¹ s⁻¹ in data set [5]; 571 M⁻¹ s⁻¹ in data set [6].

B2: IiUGT71B5b (Isatis tinctoria) (protein)
chain: MKIELVFMPSPGIGHLRSTVQLAKQLVNGDDRLSITVIIIPRSSGGDATDSAQISSLFTASQDRLRYESISVADEPTTNRLPTQHYIASQKPQVRDAVAKLIDPTRVDSPPRLAGFVVDMFCISMIDLADEFGVPTYMVYTSNARFLGITLHLQLMIDEKKYDATELDESVNELEFPCLTRPYPVDCLPHILISKDYLFMDQARSYRKMKGILVNTVAELEPHALELFSGDGDLPRAYPVGPVLHLESRSDHSNDDGKQSEILRWLDEQPAKSVVFLCFGSMGGFNEEQAREIAVALDRSGHRFLWSLRRASPDIMKEGPRDYTNLDEVLPEGFLDRTSERGKIIGWAPQAAVLAKPAIGGFVTHCGWNSMLESLWFGVPTVTWPLYAEQKVNAFEMVEELGLAVEIRRSLKGDLMFGGMETVTAEDIERAIRRVMEQGSDVRNRVKEMAEKCHVALTDGGSSKAALRKFIEDVVENVAA
notes: full-length ORF 1,443 bp, 480 aa; pET-32a+ tagged recombinant, E. coli BL21(DE3), Ni-NTA; tag removal not mentioned; gene in tandem cluster Ii4G26670/Ii4G26680/Ii4G26690 (Ii4G26690 = IiUGT71B5c); genome VHIU00000000
Regarding B2, in data set [7], the Km came out at 135.48 ± 10.90 µM, the Vmax is 0.000125 µmol/min, the kcat turned out to be 0.143 s⁻¹ and the kcat/Km was found to be 1060 M⁻¹ s⁻¹. In addition, in data set [8], the Km turned out to be 61.34 ± 1.48 µM, the Vmax is 2.41e-05 µmol/min, the kcat stood at 0.0277 s⁻¹ and the kcat/Km was 451 M⁻¹ s⁻¹.
